Measured values from patent publication US20050042209A1, “MUC1 extracellular domain and cancer treatment compositions and methods derived therefrom” (priority 2000, published 2005).

Tested on: HCT116 cells
Assay: Apoptosis (sub-G1 DNA, TUNEL) in HCT116 transfectants
Type: cell-based, human
Details: FIG. 19
Protocol: Methods. Apoptotic cells were quantified by analysis of sub-G1 DNA and TUNEL staining. To assess sub-G1 DNA content, cells were harvested, washed with PBS, fixed with 80% ethanol, and incubated in PBS containing 20 ng/ml RNase (Roche) for 60 min at 37° C. Cells were then stained with […] propidium iodide (Sigma) for 30 min at room temperature in the dark. DNA content was analyzed by flow cytometry (EPICS XL-MCL, Coulter Corp.). Apoptotic cells with DNA fragmentation were detected by staining with the In Situ cell death detection kit (TUNEL; Roche Applied Science) and visualized by confocal microscopy (ZEISS LSM510). After staining, cells were analyzed by flow cytometry. Other experimental procedures and methods were as described in Example 15.
Results. To determine if MUC1 affects the induction of apoptosis by CDDP, cells were analyzed for sub-G1 DNA content. […] Stimulation of cell surface death receptors with TNF-α or the TNF-related apoptosis inducing factor TRAIL is associated with activation of the extrinsic apoptotic pathway. To determine if MUC1 affects death receptor-induced apoptosis, HCT116 cells were treated with TNF-α.

B1: TRAIL: TNF-related apoptosis inducing factor TRAIL, rhTRAIL (Calbiochem-Novabiochem) (protein, UniProt P50591 1-281, looked up)
Tumor necrosis factor ligand …: MAMMEVQGGPSLGQTCVLIVIFTVLLQSLCVAVTYVYFTNELKQMQDKYSKSGIACFLKEDDSYWDPNDEESMNSPCWQVKWQLRQLVRKMILRTSEETISTVQEKQQNISPLVRERGPQRVAAHITGTRGRSNTLSSPNSKNEKALGRKINSWESSRSGHSFLSNLHLRNGELVIHEKGFYYIYSQTYFRFQEEIKENTKNDKQMVQYIYKYTSYPDPILLMKSARNSCWSKDAEYGLYSIYQGGIFELKENDRIFVSVTNEHLIDMDHEASFFGAFLVG
TRAIL-induced apoptosis, effect of MUC1 (HCT116/MUC1 cells): attenuated this response | apoptosis (HCT116/vector cells, 100 ng/ml TRAIL without CHX): effective in inducing apoptosis
